Experimental data: patent US20240108738A1 (Bicycle, published 2024)
Numbered stars: 1 amine (or outer) side, 2 acyl side, 3 side chain; on linkers, the order of the positions; unused ones are H or OH. Bridge positions count the residues as written; N and C are the ends. Square brackets hold non-standard residues; d marks the D form. Ends that are not written are not given here. * marks the point of attachment. TBMT = 2,4,6-tris(bromomethyl)-s-triazine, C(c1nc(C[*:2])nc(C[*:3])n1)[*:1]; TATA = O=C(CC[*:1])N1CN(C(=O)CC[*:2])CN(C(=O)CC[*:3])C1; Pent4ynoyl = C#CCCC(=O)*; PYA = not defined here

B1: BCY15663 (peptide)
peptide: ACYLPDYLCGDEYCAK
modifications: not fully specified; C-terminal D-Lys(PYA) joined to N-(amine-PEG2)-N-bis(PEG3-azide) linker carrying AF488
notes: homodimer of BCY15452; scaffold TATA
B2: BCY15921 (peptide)
peptide: ACDLTTHNCQWGICAK-NH2
modifications: linker 2-9-14 via TATA; not fully specified (residue 16); also: homodimer via shared N-(amine-PEG2)-N-bis(PEG3-azide) linker
notes: scaffold TATA
B3: BCY15922 (peptide)
peptide: ACNLQAPCMQTGKVCAK-NH2
modifications: linker 2-8-15 via TATA (inferred); not fully specified (residue 17); also: AF488 on linker
notes: homodimer of BCY15687; scaffold TATA
B4: BCY15013 (peptide)
peptide: ACYLPDWLCGDEYCA[dK](Pent4ynoyl)-NH2
modifications: linker 2-9-14 via TATA; N-terminus assumed
SMILES: C#CCCC(=O)NCCCC[C@@H](NC(=O)[C@H](C)NC(=O)[C@@H]1CSCCC(=O)N2CN3CN(C2)C(=O)CCSC[C@H](NC(=O)[C@H](CC(C)C)NC(=O)[C@H](Cc2c[nH]c4ccccc24)NC(=O)[C@H](CC(=O)O)NC(=O)[C@@H]2CCCN2C(=O)[C@H](CC(C)C)NC(=O)[C@H](Cc2ccc(O)cc2)NC(=O)[C@@H](NC(=O)[C@H](C)N)CSCCC3=O)C(=O)NCC(=O)N[C@@H](CC(=O)O)C(=O)N[C@@H](CCC(=O)O)C(=O)N[C@@H](Cc2ccc(O)cc2)C(=O)N1)C(N)=O
notes: scaffold TATA

Key:
[1] = target: T1, human CD16a F176 variant, biotinylated (human, UniProt P08637 17-208, C-terminally biotinylated); assay: SPR
T1 construct: supplier is told for the AlphaScreen assay only; also called F Variant; FcγRIIIA F variant
Protocol: (§1) The SPR analysis was run at 25° C. at a flow rate of 50 μl/min with 60 seconds association and dissociation between 60 and 200 seconds. Data were corrected for DMSO excluded volume effects. All data were double-referenced for blank injections and reference surface using standard processing procedures and data processing and kinetic fitting were performed using Scrubber software, version 2.0c (BioLogic Software). Data were fitted using simple 1:1 binding model allowing for mass transport effects where appropriate.
(§2) For analysis of peptide binding, a Biacore 8k+ instrument was used with a CM5 chip (Cytiva). All experiments were carried out at 25° C. Streptavidin was immobilized on all flow cells by standard amine coupling chemistry. The running buffer was HBS-N(Cytiva, 10 mM HEPES, 0.15 M NaCl, pH 7.4) and the flow rate was 10 μl/min. The carboxymethyl dextran surface was activated with a 1:1 ratio of 0.4 M 1-ethyl-3-(3-dimethylaminopropyl) carbodiimide hydrochloride (EDC)/0.1 M N-hydroxy succinimide (NHS) (Cytiva) for 420s. Streptavidin (ProSpec, cat no. PRO-791) was diluted to 0.2 mg/ml in 10 mM sodium acetate pH 4.5 and was injected onto the chip surface for 600 s. Residual activated groups were blocked with a 420 s injection of 1 M ethanolamine (pH 8.5). The final surface density was 2000-3000 RU. Biotinylated CD16a was diluted to 5 μg/ml in HBS-N and was captured on flow cell 2 only of the streptavidin chip at a flow rate of 10 μl/min to 1500-2500 RU. The buffer was then changed to PBS-P+(Cytiva) supplemented with 0.5-2% DMSO. […] The flow rate was 30 μl/min with 100 s association and 400 s dissociation. Data were corrected for DMSO volume exclusion effects. All data were double-referenced against blank injections and reference surface response using standard processing procedures. Data processing and kinetic fitting was performed using Biacore Insight Evaluation Software with Extended Screening and Characterization Extension (Cytiva). Data were fitted using steady state affinity 1:1 binding model to determine KD. Data were fitted using kinetic 1:1 binding model to determine kinetic constants where appropriate.

[2] = target: T2, human CD16a V176 variant, biotinylated (human, UniProt P08637 17-208, N-terminally biotinylated in-house); assay: SPR
T2 construct: supplier is told for the AlphaScreen assay only; also called V Variant; FcγRIIIA V variant
Protocol: as §1, §2

[3] = target: T3, CD16a/FCgRIIIa (F158 variant) on HEK293 cells, Terbium-labelled (UniProt P08637 17-254, limits assumed, Terbium donor dye); assay: HTRF competition vs IgG-d2 on HEK293 cells
T3 construct: whole, on cells; also called cellular CD16a
Protocol: Binding to cellular CD16a/FCgRIIIa (F158 variant) was determined through competition with IgG for binding to CD16a receptors expressed on HEK293 cells.
The experimental procedure followed the manufacturer's instructions detailed in the product information for the CD16 (FCγRIIIa) kit (Cisbio-6FR3APAG). […] Bicycle peptides were dispensed using Echo compound handler at a top concentration of 20 μM. The competing unlabeled antibodies and bicyclic peptides were added in a three-fold dilution series in Tag-lite buffer into PerkinElmer-ProxiPlate-384 Plus.
The HEK293 cell expressing Terbium-labelled CD16a were thawed and washed in PBS and added to the wells of PerkinElmer-ProxiPlate-384 Plus containing the competitor compounds. […] The data was plotted in Graph pad prism and IC50-values were determined to indicate unlabeled antibody or bicyclic peptide competition for cellular binding to the CD16a receptor.

[4] = target: T1, human CD16a F176 variant, biotinylated; assay: AlphaScreen competition vs mouse IgG2a
Protocol: (§3) Bicyclic peptides were evaluated with a CD16a-IgG competition assay using Perkin Elmer AlphaScreen™ technology. Acceptor beads (Perkin Elmer 6762003) were chemically conjugated via a reductive amination reaction with a mouse IgG2a mAb to link via the free amines, based the manufacturer's protocol. Briefly, beads were centrifuged and resuspended in a 130 mM sodium phosphate buffered solution pH 8.0 containing 0.2 mg mAb, 20 mM NaBH₃CN (Sigma 296945) and 0.06% P20 surfactant (Cytiva Life Sciences, BR-1000-54) and incubated on a rotary shaker at 44° C. for 22 hours. Unbound sites were then blocked by adding a final concentration of 3 mg/ml carboxymethoxylamine (CMO) (Sigma C13408), before continuing shaking incubation for a further 1 hour. Beads were washed by centrifugation and resuspension in 100 mM TRIS-HCl pH 8.0 (Sigma T2694), before a final resuspension in PBS (GIBCO 14190)+0.05% Proclin-300 (Sigma 48912-U), at 5 mg/ml and storage at 4° C. until use.
(§4) The assay was performed in white 384 well plates (PerkinElmer, 6007290) using assay buffer 25 mM HEPES (Sigma-Aldrich, H0887), 100 mM NaCl (Sigma-Aldrich, S5150), 0.5% BSA (Sigma-Aldrich, A3294), 0.05% P20 (Cytiva Life Sciences, BR-1000-54), pH7.4 for all dilutions. […] Mouse IgG2a-conjugated acceptor beads described above were added at a final concentration of 20 ug/ml and incubated at room temperature for 30 minutes under subdued lighting. Streptavidin coated donor beads (PerkinElmer, 6760002) were added a final concentration of 20 ug/ml and incubated at room temperature for 60 minutes under subdued lighting. […] Data was normalised to a high control containing all assay components except Bicyclic peptide and fit to a four-parameter non-linear regression in GraphPad Prism 8.0.2 to generate an IC50 value.

[5] = target: T2, human CD16a V176 variant, biotinylated; assay: AlphaScreen competition vs mouse IgG2a
Protocol: as §3, §4

[6] = target: T4, human NKp46 on cells (CHO-K1/NKp46 cells; CD56+ NK cells of human PBMCs) (human, UniProt O76036 22-304); assay: Kd,app, flow cytometry CHO-K1/NKp46
T4 construct: whole, on cells; also called NCR1; CD355
Protocol: Plates were then incubated for 1 hour at room temperature in the dark. Post-incubation, the plates were centrifuged at 500 rpm for 5 minutes and supernatant discarded. Samples were then washed twice in 200 μL of 1× phosphate buffer saline (PBS; Gibco™ 10-010-023) at 500 rpm for 5 minutes. Cells were resuspended in 100 μL of PBS and transferred to a new 96-well V-bottom polypropylene plate (Greiner Bio-One 651201). Plates were centrifuged at 500 rpm for 5 minutes and supernatant discarded.
Preparation of samples for flow cytometry: Zombie Violet™ Fixable Viability Dye (BioLegend® 423113) was prepared as a 1:1000 dilution in PBS and 100 μL of viability dye was added to each well and incubated in the dark at 4° C. for 30 minutes. To ensure NKp46 expression, untreated CHO-K1/NKp46 cells were stained with either anti-human NKp46 or an isotype control. Antibody cocktails were prepared by diluting 1.5 μL of either, PE anti-human NKp46 (BioLegend® 331908; clone 9E2) or PE isotype control IgG1, K (BioLegend® 400112), per 100 μL of stain buffer (1×PBS supplemented with 2% FBS). Cells were resuspended in master mix cocktail (100 μL) and incubated at 4° C. for 30 minutes in the dark. Subsequently, cells were washed 3 times in 100 μL of stain buffer for 5 minutes at 500 rpm and supernatant was discarded. Cells resuspended in 200 μL of stain buffer were kept at 4° C. and in the dark until read by BD FACSCelesta™ flow cytometer.
The binding affinity of the bicyclic peptides were calculated using a four-parameter logistic regression using Prism GraphPad software.

[7] = target: T4, human NKp46 on cells (CHO-K1/NKp46 …); assay: Kd,app, flow cytometry, total CD56 population of human PBMCs
Protocol: Cells were resuspended in master mix cocktail (100 μL) and incubated at 4° C. for 30 minutes in the dark. Subsequently, cells were washed 3 times in 100 μL of stain buffer for 5 minutes at 500 rpm and supernatant was discarded.

[8] = target: T5, recombinant human NKp46-Fc fusion biotinylated via Avi-tag (human, UniProt O76036 22-255, limits assumed, biotin on Avi-tag); assay: SPR Method 1
T5 construct: also called biotinylated NKp46
Protocol: SPR experiments were performed to determine kₐ (M⁻¹s⁻¹), kd (s⁻¹), KD (nM) values (where measurable) of various bicyclic peptides to immobilised NKp46.
For analysis of peptide binding to NKp46, a Biacore 3000 instrument was used with a Cytiva Streptavidin chip. Capture of the protein (recombinant human NKp46-Fc fusion biotinylated via Avi-tag) was carried out at 25° C. with HBS-N (10 mM HEPES, 0.15 M NaCl, pH 7.4) as the running buffer and biotinylated NKp46 was captured to a level of 400-800 RU using a dilution of protein to 0.2 μM in buffer. Buffer was then changed to PBS/0.05% Tween 20 and a dilution series of the peptides was prepared in this buffer with a final DMSO concentration of 0.5% with a top peptide concentration of 100 nM-5000 nM and 6 further 2 or 3-fold dilutions. The SPR analysis was run at 25° C. and a flow rate of 50 μl/min with 60 seconds association and 200-400 seconds dissociation time. Data were corrected for DMSO excluded volume effects. All data were double-referenced for blank injections and reference surface using standard processing procedures and data processing and kinetic fitting were performed using Scrubber software, version 2.0c (BioLogic Software). Data were fitted using simple 1:1 binding model allowing for mass transport effects where appropriate.

[9] = target: T6, Human NKp46 Fc tag (Acro Biosystems, NC1-H5257) (human, UniProt O76036 22-255); assay: SPR Method 1 and/or 2
T6 construct: bought; also called Fc-tagged human NKp46
Summary of the method: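 Fc-tagged human NKp46 captured on anti-human IgG surface (500–1000 RU); compounds run in PBS-P+ with 2% DMSO at 25 °C, 50 μL/min, 60 s association, 400 s dissociation. Double-referenced, DMSO-corrected; KD from steady-state 1:1 fit, kinetic constants from kinetic 1:1 fit where appropriate.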

T1 sequence (P08637 17-208 limits assumed, change not shown): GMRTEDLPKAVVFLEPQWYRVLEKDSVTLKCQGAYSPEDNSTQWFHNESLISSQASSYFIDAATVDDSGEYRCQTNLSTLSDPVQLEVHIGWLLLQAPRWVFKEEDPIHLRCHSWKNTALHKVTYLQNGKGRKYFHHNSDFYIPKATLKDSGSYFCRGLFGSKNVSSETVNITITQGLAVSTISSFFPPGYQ
T6 sequence (O76036 22-255 limits assumed): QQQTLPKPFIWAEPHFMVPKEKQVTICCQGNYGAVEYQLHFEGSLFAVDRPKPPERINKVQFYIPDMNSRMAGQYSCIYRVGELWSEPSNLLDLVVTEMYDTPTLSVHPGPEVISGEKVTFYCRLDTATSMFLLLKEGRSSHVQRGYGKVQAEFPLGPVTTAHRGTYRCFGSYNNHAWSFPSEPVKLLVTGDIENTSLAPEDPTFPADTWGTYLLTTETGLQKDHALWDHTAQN
T5 sequence (O76036 22-255 limits assumed): as above
T2 sequence (P08637 other isoform, or with tags, fused parts or gaps mutant limits assumed): as the sequence (P08637 17-208 limits assumed, change not shown) above, with F160V counted along it
T4 sequence (O76036 22-304): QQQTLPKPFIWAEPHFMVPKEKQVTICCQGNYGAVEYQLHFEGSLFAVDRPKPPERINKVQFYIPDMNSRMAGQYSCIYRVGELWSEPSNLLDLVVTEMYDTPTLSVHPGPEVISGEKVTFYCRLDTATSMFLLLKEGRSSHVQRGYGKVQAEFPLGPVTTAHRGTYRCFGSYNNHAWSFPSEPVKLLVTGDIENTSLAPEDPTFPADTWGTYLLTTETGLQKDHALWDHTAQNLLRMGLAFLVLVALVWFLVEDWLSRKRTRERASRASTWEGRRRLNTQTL
T3 sequence (P08637 17-254 limits assumed, change not shown): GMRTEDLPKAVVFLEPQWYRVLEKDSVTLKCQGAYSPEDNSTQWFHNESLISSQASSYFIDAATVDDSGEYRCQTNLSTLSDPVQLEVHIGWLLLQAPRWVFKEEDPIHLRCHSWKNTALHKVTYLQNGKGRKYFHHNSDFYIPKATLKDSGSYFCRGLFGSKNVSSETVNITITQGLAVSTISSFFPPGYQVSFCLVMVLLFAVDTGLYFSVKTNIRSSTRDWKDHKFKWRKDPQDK

Row | Binder | Kd [6] [nM] | Kd [8] [nM] | Kd [9] [nM] | also measured
1 | ACPPTVYCHPLDCAK (C-terminal Lys(PYA), scaffold TATA) [BCY15685] |  |  |  | Kd [1]: 7370 nM; Kd [2]: 1850 nM; IC50 [3]: 7560 nM; IC50 [4]: 11000 nM; IC50 [5]: 3480 nM
2 | ACVGLEELGPCSDLCAK(Pent4ynoyl)-NH2 (linker 2-11-15 via TBMT (inferred), scaffold TBMT) [BCY13886] |  |  |  | Kd [1]: 8360 nM; Kd [2]: 4280 nM; IC50 [4]: 1830 nM; IC50 [5]: 3190 nM
3 | ACYLPDWLCGDEYCA[dK](Pent4ynoyl)-NH2 (linker 2-9-14 via TATA; not fully specified; also: AF488 label on linker, homodimer of BCY15013; scaffold TATA) [BCY15455] | 2.25 |  |  | 
4 | B1 | 0.3 |  |  | Kd [7]: 0.028 nM
5 | ACNLQAPCMQTGKVCAK (C-terminal Lys(PYA), scaffold TATA) [BCY15687] |  | 960 | 783 | 
6 | B2 | 1.48 |  |  | 
7 | B3 | 1.48 |  |  | 
8 | ACYLPDYLCGDEYCAK (C-terminal D-Lys(PYA), scaffold TATA) [BCY15452] |  | 27 | 13 | 
9 | B4 |  | 138 | 59 | 
10 | ACDLTTHNCQWGICAK(PYA) (linker 2-9-14 via TATA (inferred); reading uncertain, scaffold TATA) [BCY15686] |  | 276 |  | 
